Here are results for one sequence from PMC4130184.

For this data set, the target named is T1, PRIN2;CSP41b (Arabidopsis thaliana?;Arabidopsis thaliana?) (UniProt Q9XIK0+Q9SA52).
T1 sequence 1: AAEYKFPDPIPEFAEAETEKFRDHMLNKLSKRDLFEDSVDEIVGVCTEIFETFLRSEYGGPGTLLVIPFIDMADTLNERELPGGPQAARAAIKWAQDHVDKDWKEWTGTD
T1 sequence 2: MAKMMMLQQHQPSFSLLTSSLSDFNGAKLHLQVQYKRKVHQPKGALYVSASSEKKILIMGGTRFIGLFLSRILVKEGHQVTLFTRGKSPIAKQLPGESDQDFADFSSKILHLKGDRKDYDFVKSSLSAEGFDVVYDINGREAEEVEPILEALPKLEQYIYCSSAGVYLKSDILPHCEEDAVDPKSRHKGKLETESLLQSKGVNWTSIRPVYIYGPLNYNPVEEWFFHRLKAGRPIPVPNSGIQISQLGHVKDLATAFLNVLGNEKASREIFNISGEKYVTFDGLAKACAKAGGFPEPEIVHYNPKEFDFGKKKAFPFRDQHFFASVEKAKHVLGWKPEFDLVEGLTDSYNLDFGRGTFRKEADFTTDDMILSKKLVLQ
Nature of the data set: EMSA. The note with it: EMSA: 10 mM Tris-HCl, 25 mM KCl, 1 mM DTT (1x from 10x stock; pH not stated), 1 ug poly(dI-dC) per 25 uL, 2.5% glycerol, 0.05% Triton X-100, 5 mM MgCl2, 10 mM …. (In general: In EMSA bound probe runs differently from free probe, usually more slowly.)

For the sequence “ACCCACTACGGATCGTATTCAATCGTATTCATATGATTTGGAAAAAATATTCCTAGAGCAATTCTATTTCTATGTATGTGGATTCGCTTCTAATTTATTTCATCGATTACAAAAAATTTTTTATGAATCTAAACTAAAAGGATCTTATCCATTTTACATTGGTTGACATGGCTATATAAGTCATGTTATACTGTTTC (double strand) [psbA promoter probe (197/198 bp)]”, the binding result is listed as “binds”.
